Reference: paper PMC12175901

Key:
[1] = molecular target: HIV-1 capsid capsid (Human immunodeficiency virus 1) (UniProt O93182); conditions: cited from earlier work
[2] = molecular target: full-length BicD2 (zz-TEV-Halo-hBicD2^FL-6×His) (human) (UniProt Q8TD16); test: TIRF microtubule recruitment assay; Nup358^min-zip labeled at 488 nm, full-length hBicD2, dynein and dynactin (1:1:2:2), 10 nM dynein; with all, or without dynein or BicD2; microtubules labeled with Alexa Fluor 647
[3] = molecular target: recombinant human cytoplasmic dynein (full-length dynein complex) (human) (UniProt Q14204); test: TIRF microtubule recruitment assay
[4] = molecular target: recombinant human cytoplasmic dynein (full-length dynein complex) (human) (UniProt Q14204); test: single-molecule TIRF colocalization
[5] = molecular target: purified HIV-1 cores labelled with GFP-Vpr (HIV-1) (UniProt P12520); test: TIRF fluorescence intensity against a standard curve
purified HIV-1 cores labelled with GFP-Vpr (HIV-1), sequence (P12520 whole entry, looked up): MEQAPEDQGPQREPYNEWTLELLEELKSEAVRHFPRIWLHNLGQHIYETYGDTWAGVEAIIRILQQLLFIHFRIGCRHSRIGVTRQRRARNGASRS

purified HIV-1 cores labelled with GFP-Vpr, sequence (P12520 whole entry, looked up): as above
full-length BicD2 (zz-TEV-Halo-hBicD2^FL-6×His) (human), sequence (Q8TD16 whole entry): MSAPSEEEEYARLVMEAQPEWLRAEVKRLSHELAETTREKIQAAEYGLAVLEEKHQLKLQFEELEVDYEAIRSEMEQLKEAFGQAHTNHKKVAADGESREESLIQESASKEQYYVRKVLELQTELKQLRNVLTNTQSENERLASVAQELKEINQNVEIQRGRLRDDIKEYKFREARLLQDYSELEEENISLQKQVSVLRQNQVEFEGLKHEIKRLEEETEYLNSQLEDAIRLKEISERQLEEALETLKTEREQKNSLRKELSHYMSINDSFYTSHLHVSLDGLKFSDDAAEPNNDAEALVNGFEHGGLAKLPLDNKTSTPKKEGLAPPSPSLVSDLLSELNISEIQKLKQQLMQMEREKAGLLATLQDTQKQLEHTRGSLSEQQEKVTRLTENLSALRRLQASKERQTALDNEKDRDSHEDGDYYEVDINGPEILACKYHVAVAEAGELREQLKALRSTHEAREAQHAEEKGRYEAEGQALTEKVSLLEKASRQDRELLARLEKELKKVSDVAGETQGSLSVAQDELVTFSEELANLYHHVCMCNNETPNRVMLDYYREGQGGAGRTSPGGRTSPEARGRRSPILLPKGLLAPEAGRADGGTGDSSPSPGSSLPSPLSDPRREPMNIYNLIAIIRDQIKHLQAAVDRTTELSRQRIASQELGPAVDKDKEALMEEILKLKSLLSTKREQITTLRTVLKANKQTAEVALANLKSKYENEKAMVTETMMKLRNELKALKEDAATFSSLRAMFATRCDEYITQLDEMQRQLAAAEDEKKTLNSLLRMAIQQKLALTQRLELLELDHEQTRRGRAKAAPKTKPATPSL
CypA, sequence (P62937 2-165): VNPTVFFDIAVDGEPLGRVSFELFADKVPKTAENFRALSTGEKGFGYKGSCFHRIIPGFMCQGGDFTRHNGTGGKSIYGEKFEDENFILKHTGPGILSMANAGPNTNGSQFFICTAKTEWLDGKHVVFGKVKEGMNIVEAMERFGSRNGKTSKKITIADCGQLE
HIV-1 capsid capsid (Human immunodeficiency virus 1), sequence (O93182 133-363): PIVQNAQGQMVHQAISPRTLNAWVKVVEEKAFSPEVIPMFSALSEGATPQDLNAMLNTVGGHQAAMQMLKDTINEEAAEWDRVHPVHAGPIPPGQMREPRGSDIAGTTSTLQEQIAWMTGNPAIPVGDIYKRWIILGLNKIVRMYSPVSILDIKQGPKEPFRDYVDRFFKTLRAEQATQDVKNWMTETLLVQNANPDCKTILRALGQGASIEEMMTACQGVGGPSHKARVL

Substance: CypA (from UniProt P62937)
- Kd [1]: > 13 µM

Substance: Nup358^min-zip [hNup358(2148 to 2240)-GCN4-SnapTag] (from UniProt P49792 2148-2240)
- fold loss of microtubule recruitment when BicD2 is left out [2]: 15 fold

Substance: purified HIV-1 cores labelled with GFP-Vpr (from UniProt P12520 1-96) (complex)
- fold increase of cores on microtubules (with dynein, dynactin and BicD2^FL) [3]: 3.4 fold
- percent of microtubule-bound cores colocalized with dynein [4]: 75.6%

Substance: recombinant human cytoplasmic dynein (full-length dynein complex) (from UniProt Q14204 1-4646; Q13409 1-638; O43237 1-492; P63172 1-113; P63167 1-89; Q9NP97 1-96)
- stoichiometry N (dynein dimers per HIV-1 core) [5]: 11.6
